Source: patent US20240270821A1, “GIP/GLP1/GCG TRI-RECEPTOR AGONISTS AND USES THEREOF” (priority 2023, published 2024)
Where a chain is given by its changes, count along the chain named.

T1: human GIP receptor (human) (UniProt P48546)
T1 sequence (looked up): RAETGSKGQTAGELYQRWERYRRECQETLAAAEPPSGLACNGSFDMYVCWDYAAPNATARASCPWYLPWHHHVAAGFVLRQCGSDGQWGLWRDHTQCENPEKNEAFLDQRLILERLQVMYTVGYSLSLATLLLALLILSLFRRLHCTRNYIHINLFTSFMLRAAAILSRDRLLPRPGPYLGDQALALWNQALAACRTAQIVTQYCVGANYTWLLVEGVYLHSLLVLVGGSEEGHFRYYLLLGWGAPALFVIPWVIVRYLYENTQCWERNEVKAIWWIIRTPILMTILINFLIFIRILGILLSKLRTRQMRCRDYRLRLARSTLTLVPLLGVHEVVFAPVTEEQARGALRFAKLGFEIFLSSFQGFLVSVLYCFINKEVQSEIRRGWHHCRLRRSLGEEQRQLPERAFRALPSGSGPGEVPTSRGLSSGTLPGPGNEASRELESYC

B1: Example 96 (peptide)
chain: YXQGTFTSDFSXXLDKKAQXQFIEYLLAGGPSSGAPPPEGS
modifications: synthetic construct; SITE 2: note = 2-Aminoisobutyric Acid; SITE 12: note = L-ornithine; SITE 13: note = alpha-methyl-leucine; SITE 17: note = Lysine is chemically modified through conjugation of the epsilon-amino group of the Lysine side chain with (2-[2-(2-Amino-ethoxy)-ethoxy]-acetyl)-(gamma-Glu)
B2: Example 975 (peptide)
chain: YXQGTFTSDXSXXLDXKAQXQFIEXLLEGGPSSGAPPPSGSEE
modifications: non-natural residues; acylated Lys; C-terminal amide; synthetic construct; SITE 2: note = 2-Aminoisobutyric Acid; SITE 10: note = 3-(4-Pyridyl)-L-alanine; SITE 12: note = L-ornithine; SITE 13: note = alpha-methyl-leucine; SITE 16: note = L-ornithine; SITE 17: note = Lysine is chemically modified through conjugation of the epsilon-amino group of the Lys
B3: Example 997 (peptide)
chain: B2 chain with Q21X, E28A
modifications: non-natural residues; lipidated Lys (γGlu)2-C18 diacid; C-term amide; synthetic construct; SITE 2: note = 2-Aminoisobutyric Acid; SITE 10: note = 3-(4-Pyridyl)-L-alanine; SITE 12: note = L-ornithine; SITE 13: note = alpha-methyl-leucine; SITE 16: note = L-ornithine; SITE 17: note = Lysine is chemically modified through conjugation of the epsilon-amino group of the Lys
B4: Example 993 (peptide)
chain: B2 chain with Q21E, L27I, E28A
modifications: non-natural residues; lipidated Lys (γGlu)2-C18 diacid; C-term amide; synthetic construct; SITE 2: note = 2-Aminoisobutyric Acid; SITE 10: note = 3-(4-Pyridyl)-L-alanine; SITE 12: note = L-ornithine; SITE 13: note = alpha-methyl-leucine; SITE 16: note = L-ornithine; SITE 17: note = Lysine is chemically modified through conjugation of the epsilon-amino group of the Lys
B5: Example 998 (peptide)
chain: B2 chain with X12Q, E28A
modifications: non-natural residues, acylated Lys, C-terminal amide; synthetic construct; SITE 2: note = 2-Aminoisobutyric Acid; SITE 10: note = 3-(4-Pyridyl)-L-alanine; SITE 13: note = alpha-methyl-leucine; SITE 16: note = L-ornithine; SITE 17: note = Lysine is chemically modified through conjugation of the epsilon-amino group of the Lysine side chain with (gamma-Gl)
B6: Example 1003 (peptide)
chain: B2 chain with Q21E, X25Y, E28A
modifications: (γGlu)2-C18 diacid on Lys; non-natural residues; amide; synthetic construct; SITE 2: note = 2-Aminoisobutyric Acid; SITE 10: note = 3-(4-Pyridyl)-L-alanine; SITE 12: note = L-ornithine; SITE 13: note = alpha-methyl-leucine; SITE 16: note = L-ornithine; SITE 17: note = Lysine is chemically modified through conjugation of the epsilon-amino group of the Lys
B7: Example 1000 (peptide)
chain: B2 chain with X25Y, L27I, E28A
modifications: Lys acylated with (γGlu)2-C18 diacid; non-natural residues; C-amide; synthetic construct; SITE 2: note = 2-Aminoisobutyric Acid; SITE 10: note = 3-(4-Pyridyl)-L-alanine; SITE 12: note = L-ornithine; SITE 13: note = alpha-methyl-leucine; SITE 16: note = L-ornithine; SITE 17: note = Lysine is chemically modified through conjugation of the epsilon-amino group of the Lys
B8: Example 1002 (peptide)
chain: B2 chain with X25Y, E28A
modifications: non-natural residues; (γGlu)2-C18 diacid on Lys; C-terminal amide; synthetic construct; SITE 2: note = 2-Aminoisobutyric Acid; SITE 10: note = 3-(4-Pyridyl)-L-alanine; SITE 12: note = L-ornithine; SITE 13: note = alpha-methyl-leucine; SITE 16: note = L-ornithine; SITE 17: note = Lysine is chemically modified through conjugation of the epsilon-amino group of the Lys
B9: Example 995 (peptide)
chain: B2 chain with E28A
modifications: non-natural residues, (γGlu)2-diacid acylated Lys, C-terminal amide; synthetic construct; SITE 2: note = 2-Aminoisobutyric Acid; SITE 10: note = 3-(4-Pyridyl)-L-alanine; SITE 12: note = L-ornithine; SITE 13: note = alpha-methyl-leucine; SITE 16: note = L-ornithine; SITE 17: note = Lysine is chemically modified through conjugation of the epsilon-amino group of the Lys
B10: Example 976 (peptide)
chain: B2 chain with Q21E
modifications: non-natural residues; lipidated Lys; C-terminal amide; synthetic construct; SITE 2: note = 2-Aminoisobutyric Acid; SITE 10: note = 3-(4-Pyridyl)-L-alanine; SITE 12: note = L-ornithine; SITE 13: note = alpha-methyl-leucine; SITE 16: note = L-ornithine; SITE 17: note = Lysine is chemically modified through conjugation of the epsilon-amino group of the Lys
B11: Example 1004 (peptide)
chain: B2 chain with Q21X, X25Y, E28A
modifications: non-natural residues; C18 diacid-(γ-Glu)2 acyl on Lys; C-terminal amide; synthetic construct; SITE 2: note = 2-Aminoisobutyric Acid; SITE 10: note = 3-(4-Pyridyl)-L-alanine; SITE 12: note = L-ornithine; SITE 13: note = alpha-methyl-leucine; SITE 16: note = L-ornithine; SITE 17: note = Lysine is chemically modified through conjugation of the epsilon-amino group of the Lys
B12: Example 1005 (peptide)
chain: B2 chain with X12Q, X25Y, L27I, E28A
modifications: not fully specified; synthetic construct; SITE 2: note = 2-Aminoisobutyric Acid; SITE 10: note = 3-(4-Pyridyl)-L-alanine; SITE 13: note = alpha-methyl-leucine; SITE 16: note = L-ornithine; SITE 17: note = Lysine is chemically modified through conjugation of the epsilon-amino group of the Lysine side chain with (gamma-Gl)
B13: Example 994 (peptide)
chain: B2 chain with Q21X, L27I, E28A
modifications: Lys acylated with (γGlu)2-C18 diacid; non-natural residues; C-amide; synthetic construct; SITE 2: note = 2-Aminoisobutyric Acid; SITE 10: note = 3-(4-Pyridyl)-L-alanine; SITE 12: note = L-ornithine; SITE 13: note = alpha-methyl-leucine; SITE 16: note = L-ornithine; SITE 17: note = Lysine is chemically modified through conjugation of the epsilon-amino group of the Lys
B14: Example 999 (peptide)
chain: B2 chain with X12Q, Q21E, E28A
modifications: Aib, 4Pal, αMeL, Orn, Me4Pal, αMeY; γGlu2-C18 diacid Lys; amide; synthetic construct; SITE 2: note = 2-Aminoisobutyric Acid; SITE 10: note = 3-(4-Pyridyl)-L-alanine; SITE 13: note = alpha-methyl-leucine; SITE 16: note = L-ornithine; SITE 17: note = Lysine is chemically modified through conjugation of the epsilon-amino group of the Lysine side chain with (gamma-Gl)
B15: Example 996 (peptide)
chain: B2 chain with Q21E, E28A
modifications: acylated lysine (γ-Glu)2 C18 diacid; non-natural residues; C-terminal amide; synthetic construct; SITE 2: note = 2-Aminoisobutyric Acid; SITE 10: note = 3-(4-Pyridyl)-L-alanine; SITE 12: note = L-ornithine; SITE 13: note = alpha-methyl-leucine; SITE 16: note = L-ornithine; SITE 17: note = Lysine is chemically modified through conjugation of the epsilon-amino group of the Lys

Each binder was assayed against T1, human GIP receptor (human) (assay: cell-based or functional assay).

Row | Binder | Relative cAMP EC50 | cAMP Rel EC50, nM (in the presence of 1% HSA) | cAMP Rel EC50, nM (1% HSA)
1 | B1 | 0.456 nM | 49.3 nM | –
2 | B2 | – | – | 30.1 nM
3 | B3 | – | – | 27.8 nM
4 | B4 | – | – | 14.5 nM
5 | B5 | – | – | 6.78 nM
6 | B6 | – | – | 15.9 nM
7 | B7 | – | – | 15.5 nM
8 | B8 | – | – | 11.6 nM
9 | B9 | – | – | 6.12 nM
10 | B10 | – | – | 82.7 nM
11 | B11 | – | – | 35.4 nM
12 | B12 | 0.152 nM | – | 14.5 nM
13 | B13 | – | – | 30.8 nM
14 | B14 | – | – | 10.4 nM
15 | B15 | – | – | 11.2 nM

These binders were tested against hGLP-1R (Homo sapiens, UniProt P43220) (assay: cell-based or functional assay).
hGLP-1R, sequence (P43220 24-463): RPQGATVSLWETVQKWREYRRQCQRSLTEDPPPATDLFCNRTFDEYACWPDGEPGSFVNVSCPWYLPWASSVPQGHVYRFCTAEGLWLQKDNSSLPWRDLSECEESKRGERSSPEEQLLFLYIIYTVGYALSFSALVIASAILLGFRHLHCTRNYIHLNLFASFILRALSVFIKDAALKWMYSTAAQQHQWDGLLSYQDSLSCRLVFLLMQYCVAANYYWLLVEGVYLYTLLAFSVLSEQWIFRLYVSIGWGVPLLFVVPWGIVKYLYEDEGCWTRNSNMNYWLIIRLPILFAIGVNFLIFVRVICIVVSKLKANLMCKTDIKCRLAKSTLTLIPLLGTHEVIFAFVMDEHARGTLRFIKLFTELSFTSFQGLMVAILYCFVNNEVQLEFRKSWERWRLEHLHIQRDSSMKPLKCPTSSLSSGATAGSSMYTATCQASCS

Row | Binder | Relative cAMP EC50 | cAMP Rel EC50, nM (in the presence of 1% HSA) | cAMP Rel EC50, nM (1% HSA)
16 | B1 | 3.92 nM | 836 nM | –
17 | B2 | – | – | 1810 nM
18 | B3 | – | – | 1880 nM
19 | B4 | – | – | 1210 nM
20 | B5 | – | – | 1470 nM
21 | B6 | – | – | 1950 nM
22 | B7 | – | – | 279 nM
23 | B8 | – | – | 1290 nM
24 | B9 | – | – | 1660 nM
25 | B10 | – | – | 2860 nM
26 | B11 | – | – | 973 nM
27 | B12 | 1.48 nM | – | 171 nM
28 | B13 | – | – | 395 nM
29 | B14 | – | – | 3020 nM
30 | B15 | – | – | 4810 nM

These binders were tested against human glucagon receptor (human) (UniProt P47871) (assay: cell-based or functional assay).
human glucagon receptor (human), sequence (P47871 26-477): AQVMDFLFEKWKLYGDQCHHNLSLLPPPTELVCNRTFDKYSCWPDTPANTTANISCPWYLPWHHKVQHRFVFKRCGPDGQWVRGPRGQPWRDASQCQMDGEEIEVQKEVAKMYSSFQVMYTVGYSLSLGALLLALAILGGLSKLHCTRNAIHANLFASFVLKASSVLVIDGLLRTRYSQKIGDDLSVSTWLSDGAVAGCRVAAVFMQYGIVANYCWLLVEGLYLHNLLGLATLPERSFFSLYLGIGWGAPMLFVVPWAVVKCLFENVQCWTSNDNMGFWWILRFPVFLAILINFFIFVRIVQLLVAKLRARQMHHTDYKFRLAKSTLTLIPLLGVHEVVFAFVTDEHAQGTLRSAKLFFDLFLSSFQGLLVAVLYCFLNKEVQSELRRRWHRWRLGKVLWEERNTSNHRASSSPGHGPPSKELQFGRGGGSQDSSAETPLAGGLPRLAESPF

Row | Binder | Relative cAMP EC50 | cAMP Rel EC50, nM (in the presence of 1% HSA) | cAMP Rel EC50, nM (1% HSA)
31 | B1 | 14.1 nM | 2150 nM | –
32 | B2 | – | – | 374 nM
33 | B3 | – | – | 527 nM
34 | B4 | – | – | 1860 nM
35 | B5 | – | – | 794 nM
36 | B6 | – | – | 371 nM
37 | B7 | – | – | 501 nM
38 | B8 | – | – | 197 nM
39 | B9 | – | – | 295 nM
40 | B10 | – | – | 848 nM
41 | B11 | – | – | 237 nM
42 | B12 | 9.46 nM | – | 1670 nM
43 | B13 | – | – | 1050 nM
44 | B14 | – | – | 2130 nM
45 | B15 | – | – | 1160 nM
